# Experimental data from IntAct's records for PubMed 35512704.
# B1: Speckle-type POZ protein (Homo sapiens), O43791 (parent)
# chain: MSRVPSPPPPAEMSSGPVAESWCYTQIKVVKFSYMWTINNFSFCREEMGEVIKSSTFSSGANDKLKWCLRVNPKGLDEESKDYLSLYLLLVSCPKSEVRAKFKFSILNAKGEETKAMESQRAYRFVQGKDWGFKKFIRRDFLLDEANGLLPDDKLTLFCEVSVVQDSVNISGQNTMNMVKVPECRLADELGGLWENSRFTDCCLCVAGQEFQAHKAILAARSPVFSAMFEHEMEESKKNRVEINDVEPEVFKEMMCFIYTGKAPNLDKMADDLLAAADKYALERLKVMCEDALCSNLSVENAAEILILADLHSADQLKTQAVDFINYHASDVLETSGWKSMVVSHPHLVAEAYRSLASAQCPFLGPPRKRLKQS
# partner: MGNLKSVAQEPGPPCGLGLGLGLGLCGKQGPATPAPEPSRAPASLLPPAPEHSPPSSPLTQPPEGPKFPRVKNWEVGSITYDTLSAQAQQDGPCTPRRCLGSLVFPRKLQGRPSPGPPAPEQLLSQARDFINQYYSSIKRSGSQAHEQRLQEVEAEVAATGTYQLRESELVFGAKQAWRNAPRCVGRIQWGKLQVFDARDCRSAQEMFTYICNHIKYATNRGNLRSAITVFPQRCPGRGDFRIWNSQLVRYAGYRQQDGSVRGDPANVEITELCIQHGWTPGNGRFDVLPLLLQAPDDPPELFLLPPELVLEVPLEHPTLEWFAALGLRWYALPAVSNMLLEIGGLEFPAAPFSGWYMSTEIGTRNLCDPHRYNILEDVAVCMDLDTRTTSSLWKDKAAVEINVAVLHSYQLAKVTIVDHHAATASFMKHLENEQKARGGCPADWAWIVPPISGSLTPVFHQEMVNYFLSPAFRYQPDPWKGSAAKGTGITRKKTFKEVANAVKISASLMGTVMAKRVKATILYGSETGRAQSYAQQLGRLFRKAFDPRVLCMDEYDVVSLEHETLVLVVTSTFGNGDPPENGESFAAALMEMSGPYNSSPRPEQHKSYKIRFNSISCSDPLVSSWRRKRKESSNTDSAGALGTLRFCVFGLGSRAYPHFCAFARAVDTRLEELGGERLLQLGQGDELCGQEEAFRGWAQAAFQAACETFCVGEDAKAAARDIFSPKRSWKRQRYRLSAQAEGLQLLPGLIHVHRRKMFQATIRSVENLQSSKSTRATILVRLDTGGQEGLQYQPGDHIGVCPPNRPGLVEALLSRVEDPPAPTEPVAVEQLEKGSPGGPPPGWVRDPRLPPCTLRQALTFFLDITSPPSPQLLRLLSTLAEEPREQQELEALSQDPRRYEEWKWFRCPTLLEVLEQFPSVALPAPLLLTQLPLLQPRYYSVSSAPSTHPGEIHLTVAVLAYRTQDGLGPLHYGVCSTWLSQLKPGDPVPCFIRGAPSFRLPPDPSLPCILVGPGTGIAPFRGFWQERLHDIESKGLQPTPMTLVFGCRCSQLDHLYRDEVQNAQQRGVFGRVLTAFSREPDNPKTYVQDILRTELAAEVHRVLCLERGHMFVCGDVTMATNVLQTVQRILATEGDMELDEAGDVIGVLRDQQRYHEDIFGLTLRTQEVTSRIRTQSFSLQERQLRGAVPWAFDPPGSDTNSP
# B2: Speckle-type POZ protein (Homo sapiens), O43791 (parent)
# chain: B1 chain
# partner: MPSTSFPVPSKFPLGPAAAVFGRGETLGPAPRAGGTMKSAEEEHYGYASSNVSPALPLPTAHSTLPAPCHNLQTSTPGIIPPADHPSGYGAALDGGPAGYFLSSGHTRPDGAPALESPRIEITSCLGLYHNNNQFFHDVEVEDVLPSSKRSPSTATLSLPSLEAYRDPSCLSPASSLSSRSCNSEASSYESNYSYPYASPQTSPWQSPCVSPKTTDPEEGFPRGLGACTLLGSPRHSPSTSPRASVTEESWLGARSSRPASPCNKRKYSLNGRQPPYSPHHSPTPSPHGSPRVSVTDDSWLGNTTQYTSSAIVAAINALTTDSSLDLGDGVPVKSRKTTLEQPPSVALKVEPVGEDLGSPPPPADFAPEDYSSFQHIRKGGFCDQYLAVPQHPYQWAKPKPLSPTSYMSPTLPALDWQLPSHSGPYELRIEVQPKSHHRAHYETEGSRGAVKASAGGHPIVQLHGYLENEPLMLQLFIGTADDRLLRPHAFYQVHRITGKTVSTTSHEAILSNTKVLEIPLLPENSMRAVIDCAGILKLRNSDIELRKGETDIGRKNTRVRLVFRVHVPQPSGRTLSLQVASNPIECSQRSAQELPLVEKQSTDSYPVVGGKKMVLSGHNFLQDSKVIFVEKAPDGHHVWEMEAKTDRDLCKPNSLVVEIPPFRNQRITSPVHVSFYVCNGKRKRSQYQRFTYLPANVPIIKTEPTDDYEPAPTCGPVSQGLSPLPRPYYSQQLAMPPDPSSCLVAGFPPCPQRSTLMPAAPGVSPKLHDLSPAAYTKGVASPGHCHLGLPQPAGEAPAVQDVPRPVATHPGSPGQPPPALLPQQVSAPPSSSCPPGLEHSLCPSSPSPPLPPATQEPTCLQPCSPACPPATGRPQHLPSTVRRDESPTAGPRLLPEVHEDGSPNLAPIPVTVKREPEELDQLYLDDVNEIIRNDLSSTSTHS
# B3: Speckle-type POZ protein (Homo sapiens), O43791 (parent)
# chain: B1 chain
# partner: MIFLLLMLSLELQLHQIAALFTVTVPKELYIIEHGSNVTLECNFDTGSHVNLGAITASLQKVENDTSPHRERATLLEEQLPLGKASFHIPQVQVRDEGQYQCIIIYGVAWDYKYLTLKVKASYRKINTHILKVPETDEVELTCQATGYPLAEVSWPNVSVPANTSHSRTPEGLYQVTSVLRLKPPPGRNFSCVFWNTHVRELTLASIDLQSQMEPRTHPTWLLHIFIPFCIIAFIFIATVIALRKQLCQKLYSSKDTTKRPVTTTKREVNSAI
# B4: Speckle-type POZ protein (Homo sapiens), O43791 (parent)
# chain: B1 chain
# partner: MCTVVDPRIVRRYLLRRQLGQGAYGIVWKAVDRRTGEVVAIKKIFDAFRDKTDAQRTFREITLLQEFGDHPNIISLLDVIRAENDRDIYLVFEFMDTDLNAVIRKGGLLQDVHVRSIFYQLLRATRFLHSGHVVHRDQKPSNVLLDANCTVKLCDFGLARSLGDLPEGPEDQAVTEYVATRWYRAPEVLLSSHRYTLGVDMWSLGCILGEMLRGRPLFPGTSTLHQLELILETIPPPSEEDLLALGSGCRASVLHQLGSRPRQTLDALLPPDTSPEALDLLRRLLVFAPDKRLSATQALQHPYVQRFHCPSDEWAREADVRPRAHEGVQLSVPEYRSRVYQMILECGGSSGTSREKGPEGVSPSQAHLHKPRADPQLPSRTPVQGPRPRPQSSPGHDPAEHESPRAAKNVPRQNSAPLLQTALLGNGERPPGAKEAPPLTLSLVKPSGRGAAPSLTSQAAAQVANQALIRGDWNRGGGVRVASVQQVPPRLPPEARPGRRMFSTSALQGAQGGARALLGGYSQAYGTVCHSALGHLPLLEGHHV
# Variants of: B1
# Settings: with nos3_human NOS3, P29474
row,Variant,effect of a mutation on the interaction
1,Y87C,with no effect

# Variants of: B1
# Settings: with nos3_human NOS3, P29474
# Remark: another data set of the same source
row,Variant,effect of a mutation on the interaction
1,F133L,with no effect

# Variants of: B1
# Settings: with nos3_human NOS3, P29474
# Remark: another data set of the same source
row,Variant,effect of a mutation on the interaction
1,F133V,with no effect

# Variants of: B2
# Settings: with nfac1_human NFATC1, O95644
row,Variant,effect of a mutation on the interaction
1,Y87C,with no effect

# Variants of: B2
# Settings: with nfac1_human NFATC1, O95644
# Remark: another data set of the same source
row,Variant,effect of a mutation on the interaction
1,F133V,with no effect

# Variants of: B2
# Settings: with nfac1_human NFATC1, O95644
# Remark: another data set of the same source
row,Variant,effect of a mutation on the interaction
1,F133L,with no effect

# Variants of: B2
# Settings: with nfac1_human NFATC1, O95644
# Remark: another data set of the same source
row,Variant,effect of a mutation on the interaction
1,F102C,with no effect

# Variants of: B3
# Settings: with pd1l2_human PDCD1LG2, Q9BQ51
row,Variant,effect of a mutation on the interaction
1,F102C,with no effect

# Variants of: B3
# Settings: with pd1l2_human PDCD1LG2, Q9BQ51
# Remark: another data set of the same source
row,Variant,effect of a mutation on the interaction
1,Y87C,with no effect

# Variants of: B3
# Settings: with pd1l2_human PDCD1LG2, Q9BQ51
# Remark: another data set of the same source
row,Variant,effect of a mutation on the interaction
1,F133L,with no effect

# Variants of: B3
# Settings: with pd1l2_human PDCD1LG2, Q9BQ51
# Remark: another data set of the same source
row,Variant,effect of a mutation on the interaction
1,F133V,with no effect

# Variants of: B4
# Settings: with mk15_human MAPK15, Q8TD08
row,Variant,effect of a mutation on the interaction
1,F133L,with no effect
